Read-outs that look alike come from different tables or passages of the source.
T1: full-length human glucagon-like peptide 2 receptor on HEK293/CRE-Luc/hGLP2R cells (human, UniProt O95838 1-553)
T1 sequence (looked up): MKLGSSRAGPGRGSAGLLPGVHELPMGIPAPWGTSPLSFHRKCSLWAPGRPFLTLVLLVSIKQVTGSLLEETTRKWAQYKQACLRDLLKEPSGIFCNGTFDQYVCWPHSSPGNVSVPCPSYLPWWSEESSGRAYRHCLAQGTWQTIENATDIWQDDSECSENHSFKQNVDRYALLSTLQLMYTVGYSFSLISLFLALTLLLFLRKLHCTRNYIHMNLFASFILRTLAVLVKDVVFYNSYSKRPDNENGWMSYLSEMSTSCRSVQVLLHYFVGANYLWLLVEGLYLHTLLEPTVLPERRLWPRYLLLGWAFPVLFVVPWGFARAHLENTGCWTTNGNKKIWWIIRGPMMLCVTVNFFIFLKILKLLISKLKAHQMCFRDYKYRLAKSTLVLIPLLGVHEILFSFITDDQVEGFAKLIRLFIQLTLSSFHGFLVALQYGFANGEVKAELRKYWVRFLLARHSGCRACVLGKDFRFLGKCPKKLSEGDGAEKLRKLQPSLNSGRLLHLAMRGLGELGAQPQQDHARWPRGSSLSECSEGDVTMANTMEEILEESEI

T2: full-length human gastric inhibitory polypeptide receptor on HEK293/CRE-Luc/hGIPR cells (human, UniProt P48546 22-466)
T2 sequence (looked up): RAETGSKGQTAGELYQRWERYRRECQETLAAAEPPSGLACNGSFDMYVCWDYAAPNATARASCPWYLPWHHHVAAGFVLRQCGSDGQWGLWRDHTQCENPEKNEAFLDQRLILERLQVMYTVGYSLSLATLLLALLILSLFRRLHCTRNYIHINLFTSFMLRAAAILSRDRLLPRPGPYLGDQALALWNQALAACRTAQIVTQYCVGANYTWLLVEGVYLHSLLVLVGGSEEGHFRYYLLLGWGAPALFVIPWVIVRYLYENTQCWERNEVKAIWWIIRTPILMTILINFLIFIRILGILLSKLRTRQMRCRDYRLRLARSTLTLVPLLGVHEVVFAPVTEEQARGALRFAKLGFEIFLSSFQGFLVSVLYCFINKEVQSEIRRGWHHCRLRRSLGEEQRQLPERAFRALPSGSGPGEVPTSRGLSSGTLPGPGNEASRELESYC

T3: full-length mouse GLP1R on HEK293/CRE-Luc/mGLP1R cells (mouse, UniProt O35659 22-463)
T3 construct: whole, on cells
T3 sequence (looked up): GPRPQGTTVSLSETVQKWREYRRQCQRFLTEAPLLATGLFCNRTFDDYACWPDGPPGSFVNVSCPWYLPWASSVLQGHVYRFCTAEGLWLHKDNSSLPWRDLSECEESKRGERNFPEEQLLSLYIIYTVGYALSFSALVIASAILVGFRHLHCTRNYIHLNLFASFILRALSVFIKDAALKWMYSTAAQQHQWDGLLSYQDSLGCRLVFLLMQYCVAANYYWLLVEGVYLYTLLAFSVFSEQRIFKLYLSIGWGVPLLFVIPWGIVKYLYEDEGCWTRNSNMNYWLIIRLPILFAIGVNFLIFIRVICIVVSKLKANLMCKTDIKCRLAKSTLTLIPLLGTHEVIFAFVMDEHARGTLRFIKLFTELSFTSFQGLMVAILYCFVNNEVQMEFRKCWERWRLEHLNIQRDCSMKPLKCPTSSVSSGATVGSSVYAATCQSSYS


Experiments:
[1] = biological target: T4, full-length human GLP1R on HEK293/CRE-Luc/hGLP1R cells (human, UniProt P43220 24-463); experiment: cell-based or functional assay
[2] = biological target: T5, full-length cynomolgus GLP1R on HEK293/CRE-Luc/mfGLP1R cells (cynomolgus, UniProt F8V479 24-463); experiment: cell-based or functional assay
[3] = biological target: T1, full-length human glucagon-like peptide …; experiment: cell-based or functional assay
[4] = biological target: T4, full-length human GLP1R on …; experiment: cell-based or functional assay; remark: listed apart in the source
[5] = biological target: T2, full-length human gastric inhibitory …; experiment: cell-based or functional assay
[6] = biological target: full-length human glucagon receptor on HEK293/CRE-Luc/hGCGR cells (human, UniProt P47871 26-477); experiment: cell-based or functional assay
Chain of full-length human glucagon receptor on HEK293/CRE-Luc/hGCGR cells (P47871 26-477): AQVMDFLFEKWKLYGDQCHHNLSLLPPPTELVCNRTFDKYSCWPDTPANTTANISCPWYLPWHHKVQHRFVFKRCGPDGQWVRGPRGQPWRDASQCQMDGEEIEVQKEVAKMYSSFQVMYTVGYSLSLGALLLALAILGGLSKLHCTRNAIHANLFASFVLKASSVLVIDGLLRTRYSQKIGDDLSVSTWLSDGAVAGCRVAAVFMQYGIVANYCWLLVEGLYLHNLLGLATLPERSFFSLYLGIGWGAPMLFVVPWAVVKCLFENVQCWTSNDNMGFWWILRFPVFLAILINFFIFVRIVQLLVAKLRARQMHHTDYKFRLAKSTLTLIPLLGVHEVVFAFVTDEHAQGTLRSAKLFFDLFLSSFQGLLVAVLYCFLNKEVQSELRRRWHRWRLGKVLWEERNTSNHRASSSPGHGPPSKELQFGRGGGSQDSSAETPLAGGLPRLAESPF

[7] = biological target: T6, N-terminal ectodomain of human GLP1R expressed with a myc-myc hexahistidine tag (human, UniProt P43220 24-145, limits assumed); experiment: SPR, captured via anti-hFc, 25 C
T6 construct: extracellular domain; also called hGLP1R-MMH; hGLP1R.mmh
T6 sequence (P43220 24-145 limits assumed): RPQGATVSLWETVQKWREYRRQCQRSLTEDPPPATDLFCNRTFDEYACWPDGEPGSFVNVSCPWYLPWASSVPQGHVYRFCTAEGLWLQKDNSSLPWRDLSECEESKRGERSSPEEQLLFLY

[8] = biological target: T4, full-length human GLP1R on …; experiment: flow cytometry, hGLP1R cells
[9] = biological target: T5, full-length cynomolgus GLP1R on …; experiment: flow cytometry, mfGLP1R cells
[10] = biological target: T4, full-length human GLP1R on …; experiment: flow cytometry, hGLP1R cells; remark: listed apart in the source
[11] = biological target: T3, full-length mouse GLP1R on …; experiment: flow cytometry, mGLP1R cells
[12] = biological target: T5, full-length cynomolgus GLP1R on …; experiment: flow cytometry, mfGLP1R cells; remark: listed apart in the source

| Binder | CRE-luc EC50 [1] | CRE-luc Relative Potency (% M2361 EC50) [1] | CRE-luc Relative Signal:Noise (% M2361) [1] | CRE-luc S/N [1] | CRE-luc EC50 [2] | CRE-luc EC50 [3] | CRE-luc EC50 [4] | CRE-luc EC50 [5] | CRE-luc EC50 [6] | 90 nM hGLP1R.mmh Bound (RU) [7] | Kd [7] | koff [7] | kon [7] | t1/2 [7] | EC50 [8] | Flow S/N [8] | EC50 [9] | Flow S/N [9] | further results |
| --- | --- | --- | --- | --- | --- | --- | --- | --- | --- | --- | --- | --- | --- | --- | --- | --- | --- | --- | --- |
| REGN8070-M3190 (antibody, human IgG4 S228P, kappa, V domains shown, linker-payload M3190 (LP11) on Gln 3 of the N-terminal Q-tag LLQGSG, antibody-tethered drug conjugate; also called REGN8070 ATDC) VH: QVQLVESGGGVGQPGRSLRLSCAASGFTFSRNAMHWVRQAPGKGLEWVAVISYDGSNKHYADSVKGRFTISRDNSKNTLYLEMNSLRVEDTAVYYCAKGGIPFDYWGQGTLVTVSS VL: DIVMTQSPLSSPVTLGQPASISCRSSQSLVHFDGNTYLSWLHQRPGQPPRLLIYKISNRFSGVPDRFSGSGAGTDFTLKISRVEPEDVGVYYCMHATQFPYTFGQGTKLEIKR | 0.0984 nM | 16.5% | 112% | 71.8 fold | 0.0973 nM | > 200 nM | 0.094 nM | > 200 nM | > 200 nM | 86.7 RU | 0.069 nM | 6.06e-05 s⁻¹ | 878000 M⁻¹ s⁻¹ | 3.17 h | 4.39 nM | 166 fold | 3.71 nM | 155 fold | – |
| REGN9268 (antibody, human IgG4 S228P, kappa, IgG4; Q-tag LLQGSG at the N-terminus of the light chain; also called mAb 17; REGN9268 unconjugated Ab) heavy: not shown light: LLQGSGEIVLTQSPGTLSLSPGERDTLSCRASQSIAGRYVAWYQQKPGQAPRLLIYGASSRATGIPDRFSGSGSGTDFTLTISRLEPEDFAVYYCQQYGSSPWTFGQGTKVEIKRTVAAPSVFIFPPSDEQLKSGTASVVCLLNNFYPREAKVQWKVDNALQSGNSQESVTEQDSKDSTYSLSSTLTLSKADYEKHKVYACEVTHQGLSSPVTKSFNRGEC | – | – | – | – | – | – | – | – | – | – | – | – | – | – | – | – | 0.81 nM | – | EC50 [10]: 3.33 nM; EC50 [11]: 45 nM; EC50 [12]: 4.13 nM |
| REGN9267-M3190 (antibody, human IgG4 S228P, kappa, linker-payload M3190 (LP11) on Gln 3 of the N-terminal Q-tag LLQGSG, antibody-tethered drug conjugate; Q-tag on heavy chain; also called REGN9267 ATDC) heavy: not shown light: EIVLTQSPGTLSLSPGERDTLSCRASQSIAGRYVAWYQQKPGQAPRLLIYGASSRATGIPDRFSGSGSGTDFTLTISRLEPEDFAVYYCQQYGSSPWTFGQGTKVEIKRTVAAPSVFIFPPSDEQLKSGTASVVCLLNNFYPREAKVQWKVDNALQSGNSQESVTEQDSKDSTYSLSSTLTLSKADYEKHKVYACEVTHQGLSSPVTKSFNRGEC | 0.0854 nM | 19% | 107% | 68.9 fold | 0.25 nM | > 200 nM | 0.212 nM | > 200 nM | > 200 nM | 110 RU | 0.528 nM | 0.000186 s⁻¹ | 353000 M⁻¹ s⁻¹ | 1.03 h | 5.08 nM | 269 fold | 4.44 nM | 212 fold | – |
| REGN8072-M3190 (antibody, human IgG4 S228P, kappa, V domains shown, linker-payload M3190 (LP11) on Gln 3 of the N-terminal Q-tag LLQGSG, antibody-tethered drug conjugate; also called REGN8072 ATDC; anti-GLP1R mAb4-LP11) VH: QVQLVESGGGVVQPARSLRLSCAASGFAFSRSAMHWVRQAPGKGLEWVAVISYDGSNKYYTDSVKGRFTISRDNSKNTLYLQMNTLRAEDTALYYCAKMYTTMDSFDYWGQGTLVTVSS VL: DIQLTQSPSFLSASVGDRVTITCWASQGISSYLAWYQQKPGKAPKLLIYAASTLQSGVPSRFSGSGSGTEFTLTISSLQPEDFALYYCQQLNSYPRTFGQGTKVEIKR | 0.0874 nM | 18.6% | 125% | 80.7 fold | 0.137 nM | > 200 nM | 0.114 nM | > 200 nM | > 200 nM | 77.3 RU | 0.17 nM | 0.000297 s⁻¹ | 1.74e+06 M⁻¹ s⁻¹ | 0.65 h | 3.88 nM | 173 fold | 3.39 nM | 148 fold | – |

— patent publication US20230330254A1 (Regeneron, published 2023)
